Sequences and labels used below:
B1: STX11 (parent)
chain: FQRAMHDYNQAEMKQRDNCKIRIQ
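Note: lentivirally expressed fusions sorted by FACS into six bins by GFP to DsRed ratio, PSI derived from sequencing read proportions per bin multiplied by bin number.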

The variants in this data set derive from B1. The data set is described as follows: protein stability index of a GFP-peptide fusion (GPS, HEK-293T) (PSI 1-6); higher = more stable. The conditions noted are these: c terminus: a fixed tail appended.
Regarding FQRAMHDYNQAEMKQRTNCKIRIQ [D17T], the protein stability index turned out to be 1.98.

In the case of FQRAMHDYNQYEMKQRDNCKIRIQ [A11Y], the protein stability index amounted to 3.24.

With FQRAMHDYNQWEMKQRDNCKIRIQ [A11W], the protein stability index was 2.49.

As for FQRAMHDYNQAEMKQRDNCKGRIQ [I21G], the protein stability index stood at 3.08.

Take FQRAMHDYNQAEMKQRDNCKMRIQ [I21M]: the protein stability index is 3.12.

As to FQRAMHDYNQAEMKQRDNCKRRIQ [I21R], the protein stability index stood at 3.56.

FQRAMHDYNQAEMKQRDNCKQRIQ [I21Q]: the protein stability index came out at 3.04.

FQRAMHDYNQAEMKQRDNCKHRIQ [I21H]: the protein stability index turned out to be 2.76.

FQRAMHDYNQAEMKQRDNCKSRIQ [I21S]: the protein stability index is 3.5.

In the case of FQRAMHDYNQAEMKQRDNCKKRIQ [I21K], the protein stability index stood at 2.68.

Regarding FQRAMHDYNQAEMKQRDNCKFRIQ [I21F], the protein stability index came out at 2.34.

FQRAMHDYNQAEMKQRDNCKDRIQ [I21D]: the protein stability index stood at 3.86.

For the variant FQRAMHDYNQAEMKQRDNCKARIQ [I21A], the protein stability index is 3.01.

On to FQRAMHDYNQAEMKQRDNCKPRIQ [I21P], for which the protein stability index was determined as 2.9.

As to FQRAMHDYNQAEMKQRDNCKCRIQ [I21C], the protein stability index is 2.36.

For FQRAMHDYNQAEMKQRDNCKERIQ [I21E], the protein stability index stood at 2.92.

Regarding FQRAMHDYNQAEMKQRDNCKLRIQ [I21L], the protein stability index worked out at 2.29.

For the variant FQRAMHDYNQAEMKQRDNCKNRIQ [I21N], the protein stability index was 2.98.

In the case of FQRAMHDYNQAGMKQRDNCKIRIQ [E12G], the protein stability index is 2.05.

With FQRAMHDYNQALMKQRDNCKIRIQ [E12L], the protein stability index was determined as 2.42.

Consider FQRAMHDYNQAQMKQRDNCKIRIQ [E12Q], for which the protein stability index came to 2.31.

For FQRAMHDYNQACMKQRDNCKIRIQ [E12C], the protein stability index came out at 2.11.

FQRAMHDYNQATMKQRDNCKIRIQ [E12T]: the protein stability index came out at 2.62.

Consider FQRAMHDYNQAWMKQRDNCKIRIQ [E12W], for which the protein stability index worked out at 2.39.

For FQRAMHDYNQAPMKQRDNCKIRIQ [E12P], the protein stability index came to 2.02.

For FQRAMHDYNQANMKQRDNCKIRIQ [E12N], the protein stability index came to 2.29.

In the case of FQRAMHDYNQAMMKQRDNCKIRIQ [E12M], the protein stability index turned out to be 1.6.

Consider FQRAMHDYNQASMKQRDNCKIRIQ [E12S], for which the protein stability index was determined as 2.23.

Turning to FQRAMHDYNQAKMKQRDNCKIRIQ [E12K], the protein stability index is 2.31.

With FQRAMHDYNQAFMKQRDNCKIRIQ [E12F], the protein stability index amounted to 2.29.

For the variant FQRAMHDYNQAIMKQRDNCKIRIQ [E12I], the protein stability index was determined as 2.44.

Consider FQRAMHDYNQAYMKQRDNCKIRIQ [E12Y], for which the protein stability index amounted to 1.67.

Consider FQRAMHDYNQADMKQRDNCKIRIQ [E12D], for which the protein stability index is 2.5.

FQRAMHDYNQAVMKQRDNCKIRIQ [E12V]: the protein stability index came to 2.52.

Turning to FQRAMHDYNQARMKQRDNCKIRIQ [E12R], the protein stability index is 2.83.

For FQRAMHDYNQAHMKQRDNCKIRIQ [E12H], the protein stability index worked out at 2.14.

As for FQRAMHDYNQAAMKQRDNCKIRIQ [E12A], the protein stability index is 2.32.

As to FQRAMHDYNQAEMNQRDNCKIRIQ [K14N], the protein stability index came out at 2.94.

On to FQRAMHDYNQAEMCQRDNCKIRIQ [K14C], for which the protein stability index stood at 3.08.

Turning to FQRAMHDYNQAEMDQRDNCKIRIQ [K14D], the protein stability index was found to be 3.08.

For the variant FQRAMHDYNQAEMFQRDNCKIRIQ [K14F], the protein stability index was found to be 2.91.

FQRAMHDYNQAEMWQRDNCKIRIQ [K14W]: the protein stability index was found to be 2.86.

As for FQRAMHDYNQAEMYQRDNCKIRIQ [K14Y], the protein stability index was 2.14.

FQRAMHDYNQAEMMQRDNCKIRIQ [K14M]: the protein stability index is 2.82.

Turning to FQRAMHDYNQAEMVQRDNCKIRIQ [K14V], the protein stability index worked out at 2.48.

For the variant FQRAMHDYNQAEMRQRDNCKIRIQ [K14R], the protein stability index turned out to be 2.18.

On to FQRAMHDYNQAEMIQRDNCKIRIQ [K14I], for which the protein stability index was 2.3.

For FQRAMHDYNQAEMTQRDNCKIRIQ [K14T], the protein stability index came to 2.69.

Take FQRAMHDYNQAEMLQRDNCKIRIQ [K14L]: the protein stability index came out at 2.44.

As to FQRAMHDYNQAEMQQRDNCKIRIQ [K14Q], the protein stability index is 2.4.

Take FQRAMHDYNQAEMPQRDNCKIRIQ [K14P]: the protein stability index came to 2.85.

In the case of FQRAMHDYNQAEMAQRDNCKIRIQ [K14A], the protein stability index was 2.98.

Turning to FQRAMHDYNQAEMSQRDNCKIRIQ [K14S], the protein stability index worked out at 2.48.

In the case of FQRAMHDYNQAEMHQRDNCKIRIQ [K14H], the protein stability index is 2.57.

As to FQRAMHDYNQAEMEQRDNCKIRIQ [K14E], the protein stability index was 3.93.

Take FQRAMHDYNQAEMGQRDNCKIRIQ [K14G]: the protein stability index was 3.11.

Regarding FQRAMHDYNQAEMKLRDNCKIRIQ [Q15L], the protein stability index amounted to 2.32.

FQRAMHDYNQAEMKRRDNCKIRIQ [Q15R]: the protein stability index was 2.64.

On to FQRAMHDYNQAEMKHRDNCKIRIQ [Q15H], for which the protein stability index came out at 2.57.

As for FQRAMHDYNQAEMKIRDNCKIRIQ [Q15I], the protein stability index was 2.17.

With FQRAMHDYNQAEMKMRDNCKIRIQ [Q15M], the protein stability index was 1.86.

For FQRAMHDYNQAEMKCRDNCKIRIQ [Q15C], the protein stability index amounted to 2.29.

As to FQRAMHDYNQAEMKSRDNCKIRIQ [Q15S], the protein stability index was determined as 2.71.

Turning to FQRAMHDYNQAEMKERDNCKIRIQ [Q15E], the protein stability index was found to be 3.2.

Take FQRAMHDYNQAEMKDRDNCKIRIQ [Q15D]: the protein stability index came out at 2.74.

As to FQRAMHDYNQAEMKTRDNCKIRIQ [Q15T], the protein stability index amounted to 3.18.

In the case of FQRAMHDYNQAEMKPRDNCKIRIQ [Q15P], the protein stability index came to 2.85.

On to FQRAMHDYNQAEMKWRDNCKIRIQ [Q15W], for which the protein stability index came to 3.09.

For the variant FQRAMHDYNQAEMKARDNCKIRIQ [Q15A], the protein stability index was determined as 2.23.

With FQRAMHDYNQAEMKNRDNCKIRIQ [Q15N], the protein stability index worked out at 2.86.

FQRAMHDYNQAEMKVRDNCKIRIQ [Q15V]: the protein stability index worked out at 2.56.

For FQRAMHDYNQAEMKFRDNCKIRIQ [Q15F], the protein stability index was 2.01.

Take FQRAMHDYNQAEMKGRDNCKIRIQ [Q15G]: the protein stability index was 2.45.

As for FQRAMHDYNQAEMKYRDNCKIRIQ [Q15Y], the protein stability index is 3.08.

As for FQRAMHDYNQAEMKKRDNCKIRIQ [Q15K], the protein stability index stood at 2.15.

In the case of FQRAMHDYNQAEAKQRDNCKIRIQ [M13A], the protein stability index was determined as 2.95.

On to FQRAMHDYNQAEDKQRDNCKIRIQ [M13D], for which the protein stability index turned out to be 3.71.

In the case of FQRAMHDYNQAEQKQRDNCKIRIQ [M13Q], the protein stability index is 2.62.

Turning to FQRAMHDYNQAELKQRDNCKIRIQ [M13L], the protein stability index was 2.35.

Consider FQRAMHDYNQAEEKQRDNCKIRIQ [M13E], for which the protein stability index is 2.49.

As for FQRAMHDYNQAEHKQRDNCKIRIQ [M13H], the protein stability index was determined as 2.65.

With FQRAMHDYNQAEYKQRDNCKIRIQ [M13Y], the protein stability index is 2.62.

As to FQRAMHDYNQAECKQRDNCKIRIQ [M13C], the protein stability index worked out at 2.49.

With FQRAMHDYNQAEWKQRDNCKIRIQ [M13W], the protein stability index was 2.5.

FQRAMHDYNQAETKQRDNCKIRIQ [M13T]: the protein stability index amounted to 2.79.

As for FQRAMHDYNQAEFKQRDNCKIRIQ [M13F], the protein stability index was determined as 2.5.

Consider FQRAMHDYNQAEGKQRDNCKIRIQ [M13G], for which the protein stability index came to 3.49.

With FQRAMHDYNQAEIKQRDNCKIRIQ [M13I], the protein stability index is 2.85.

As for FQRAMHDYNQAEKKQRDNCKIRIQ [M13K], the protein stability index was 1.98.

Consider FQRAMHDYNQAESKQRDNCKIRIQ [M13S], for which the protein stability index is 3.03.

For the variant FQRAMHDYNQAERKQRDNCKIRIQ [M13R], the protein stability index is 2.1.

Turning to FQRAMHDYNQAEVKQRDNCKIRIQ [M13V], the protein stability index turned out to be 2.52.

As for FQRAMHDYNQAEPKQRDNCKIRIQ [M13P], the protein stability index came to 3.11.

On to FQRAMHDYNQAENKQRDNCKIRIQ [M13N], for which the protein stability index worked out at 3.5.

These data come from the supplement of paper PMC10567573.
